Source: publication PMC8836279, “The T850D Phosphomimetic Mutation in the Androgen Receptor Ligand Binding Domain Enhances Recruitment at Activation Function 2” (International Journal of Molecular Sciences, 2022)
Residue numbers refer to the chain shown, from its start. Square brackets hold non-standard residues; d marks the D form. pT = C[C@@H](OP(=O)(O)O)[C@H](N)C(=O)O

What was measured:
[1] = target: T1, AR T850A (Homo sapiens, UniProt P10275, T851A); test: Whole-cell competition ligand binding assay in COS-7 cells; conditions: mean ± SE
T1 construct: Cells expressing a flag-tagged AR full-length were used as control; expressed in transfected cells
T1 sequence (P10275 1-920 T851A): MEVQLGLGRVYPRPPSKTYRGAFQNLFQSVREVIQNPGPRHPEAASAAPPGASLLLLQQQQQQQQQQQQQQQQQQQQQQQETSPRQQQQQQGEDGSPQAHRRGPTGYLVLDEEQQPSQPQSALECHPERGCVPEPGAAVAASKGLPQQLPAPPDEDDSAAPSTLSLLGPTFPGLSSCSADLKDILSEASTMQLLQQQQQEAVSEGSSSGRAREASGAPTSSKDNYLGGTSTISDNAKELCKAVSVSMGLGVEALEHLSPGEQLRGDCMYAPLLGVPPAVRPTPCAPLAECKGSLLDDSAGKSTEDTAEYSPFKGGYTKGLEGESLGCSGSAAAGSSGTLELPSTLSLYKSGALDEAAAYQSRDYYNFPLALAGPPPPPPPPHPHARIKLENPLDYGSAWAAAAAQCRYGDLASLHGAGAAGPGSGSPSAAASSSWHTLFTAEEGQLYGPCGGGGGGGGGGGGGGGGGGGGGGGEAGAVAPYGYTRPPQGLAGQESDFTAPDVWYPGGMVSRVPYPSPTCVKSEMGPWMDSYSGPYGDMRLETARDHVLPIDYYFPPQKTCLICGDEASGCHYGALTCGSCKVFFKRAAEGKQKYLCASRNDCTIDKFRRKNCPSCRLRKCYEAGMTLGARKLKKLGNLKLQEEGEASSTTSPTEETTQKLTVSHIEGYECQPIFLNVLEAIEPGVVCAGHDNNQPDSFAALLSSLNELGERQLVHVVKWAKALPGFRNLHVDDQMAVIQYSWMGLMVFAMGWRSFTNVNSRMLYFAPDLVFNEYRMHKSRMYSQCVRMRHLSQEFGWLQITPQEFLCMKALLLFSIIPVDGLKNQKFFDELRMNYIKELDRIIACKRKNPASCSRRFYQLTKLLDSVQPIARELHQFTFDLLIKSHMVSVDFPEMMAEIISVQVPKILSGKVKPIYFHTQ
Experimental: (§1) After addition of Ultima Gold XR (Perkin Elmer, Waltham, MA, USA), cell lysates were counted for ^3H-signal. Data were normalized for the average cpm of all data points per independent experiment. Mean and SEM of the specific binding (total binding—non-specific binding) is given (n ≥ 3). Via non-linear regression analysis using the One-site binding-equation of GraphPad Prism 9 (version 9.3.1), the KD and Bmax were calculated. Ratio-paired T-test with * = p ≤ 0.05, ** = p < 0.01.

[2] = target: T2, AR T850D (Homo sapiens, UniProt P10275, T851D); test: as above
T2 construct: Cells expressing a flag-tagged AR full-length were used as control; expressed in transfected cells
T2 sequence (P10275 1-920 T851D): T1 sequence (P10275 1-920 T851A) with A851D
Experimental: as §1

[3] = target: T3, AR WT (Homo sapiens, UniProt P10275); test: as above; conditions: mean ± SE
T3 construct: Cells expressing a flag-tagged AR full-length were used as control; expressed in transfected cells
T3 sequence (P10275 1-920): T1 sequence (P10275 1-920 T851A) with A851T
Experimental: as §1

[4] = Circular dichroism spectroscopy and thermal denaturation of H10 peptides; type: physicochemical; conditions: for melting temperature higher than the WT peptide: 25 µM peptide in 20% TFE-TRIS buffer pH 7.5, at all wave lengths (208, 211, 215, 222 nm); for reduction (vs. WT peptide) of the CD minimum at 208 nm / reduction (vs. WT peptide) of the CD minimum at 222 nm: 50 µM peptide in 20% TFE-TRIS buffer pH 7.5, 4 °C
Experimental: Peptides (AR WT 845–868: Acetyl-[…]-amide) with T850D or with phosphorylated T850 (Genscript, Piscataway, NJ, USA) were compared to WT peptide through their CD spectra. […] The Mean Residue-Molar Ellipticity (MR-ME) was calculated as MR-ME = MRW × θ/(10 × d × c) with MRW (Mean Residue Weight) = peptide weight/(n − 1) and n = […]; with θ as the observed ellipticity in millidegrees; […]. The unfolded fraction (Funfolded) of the peptide was calculated from the Ellipticity data using equation: Funfolded = (θt − θfolded)/(θunfolded − θfolded) with θt as the Ellipticity at each temperature, θfolded as the Elllipticity of the peptide in folded state and θunfolded as the Ellipticity of the peptide in unfolded state. Melting temperature (Tm) of AR 845–868 peptides were calculated through nonlinear regression analysis of the Sigmoidal dose response curves (variable slope) using GraphPad Prism 9, version 9.3.1. The temperature corresponding to an unfolded fraction of 0.5 is the Tm. Mean melting temperatures with 95% CI of 2 independent experiments are given. Helix content was calculated from the molar ellipticity [θ] at 222 nm using the following equation, % helix = 100 ([θ]222/(−39,500(1 − 2.57/n))), where n is the number of total peptide bonds and [θ]222 has been corrected for background.

[5] = tested on: LBD WT; conditions: split TEV assay, Hep3B

| Molecule | melting temperature higher than the WT peptide [4] | reduction (vs. WT peptide) of the CD minimum at 208 nm [4] [%] | reduction (vs. WT peptide) of the CD minimum at 222 nm [4] [%] | also measured |
| --- | --- | --- | --- | --- |
| C[C@@H]1CC2=CC(=O)CC[C@@H]2[C@H]2CC[C@@]3(C)[C@@H](CC[C@]3(C)O)[C@@H]21 [^3H-Mib] |  |  |  | Bmax [1]: 5514 (±561) cpm; increase of maximal binding, AR T850D vs. AR WT [2]: approximately 50%; Bmax ([2]; mean ± SE): 7902 (±773) ** cpm; Bmax [3]: 5182 (±602) cpm |
| T850D peptide: H10 peptide AR 845–868 (WT: Acetyl-KRKNPTSCSRRFYQLTKLLDSVQP-amide) with T850D (Ac-KRKNPDSCSRRFYQLTKLLDSVQP-NH2) | approximately 13 °C | 30 | 43 |  |
| C[C@]12CCC(=O)C[C@@H]1CC[C@@H]1[C@@H]2CC[C@]2(C)[C@@H](O)CC[C@@H]12 [DHT, dihydrotestosterone] |  |  |  | EC50 of WT LBD compared to EC50 of T850D LBD [5]: 10 fold |
| T850Ph peptide: H10 peptide AR 845–868 (WT: Acetyl-KRKNPTSCSRRFYQLTKLLDSVQP-amide) with phosphorylated T850 (Ac-KRKNP[pT]SCSRRFYQLTKLLDSVQP-NH2; SMILES CC(=O)N[C@@H](CCCCN)C(=O)N[C@@H](CCCNC(=N)N)C(=O)N[C@@H](CCCCN)C(=O)N[C@@H](CC(N)=O)C(=O)N1CCC[C@H]1C(=O)N[C@H](C(=O)N[C@@H](CO)C(=O)N[C@@H](CS)C(=O)N[C@@H](CO)C(=O)N[C@@H](CCCNC(=N)N)C(=O)N[C@@H](CCCNC(=N)N)C(=O)N[C@@H](Cc1ccccc1)C(=O)N[C@@H](Cc1ccc(O)cc1)C(=O)N[C@@H](CCC(N)=O)C(=O)N[C@@H](CC(C)C)C(=O)N[C@H](C(=O)N[C@@H](CCCCN)C(=O)N[C@@H](CC(C)C)C(=O)N[C@@H](CC(C)C)C(=O)N[C@@H](CC(=O)O)C(=O)N[C@@H](CO)C(=O)N[C@H](C(=O)N[C@@H](CCC(N)=O)C(=O)N1CCC[C@H]1C(N)=O)C(C)C)[C@@H](C)O)[C@@H](C)OP(=O)(O)O) | ~27 °C | 38 | 51 |  |
